Experimental data from US20100286027A1, “ANTI-BACTERIAL COMPOSITIONS” (priority 2008, published 2010).
≈ marks a conversion by molar mass, not a printed value.

Assays:
H. influenzae NB65027 [1] = test: microbe, parasite or virus in culture; settings: Haemophilus influenzae, NB65027, read-out: minimal inhibitory concentration (MIC)
[2] = test system: H. influenzae NB65027-CDS0021* (TolC efflux pump mutant); test: MIC against aerobic gram negative bacteria, efflux pump mutant; assay type: cell-based, Haemophilus influenzae
[3] = test system: E. coli NB27005* (TolC efflux pump mutant); test: as above; assay type: cell-based, Escherichia coli
P. aeruginosa NB52019 = test: MIC against aerobic gram negative bacteria; assay type: cell-based, Pseudomonas aeruginosa
[4] = test system: P. aeruginosa NB52020* (mexAB/oprM efflux pump mutant); test: MIC against aerobic gram negative bacteria, efflux pump mutant; assay type: cell-based, Pseudomonas aeruginosa
E. coli NB27004 = test: MIC against aerobic gram negative bacteria; assay type: cell-based, Escherichia coli
L. monocytogenes = test: Bacterial growth inhibition (FIG. 15); assay type: cell-based, Listeria monocytogenes; settings: FIG. 15 Panel C
[5] = test system: Stenotrophomonas maltophilia (17666); test: BacTiter-Glo bacterial ATP content viability assay; settings: gram −, +/− SD, n = 3, >100 = activity detected but <50% inhibition
[6] = test system: Klebsiella pneumoniae (700603); test: BacTiter-Glo bacterial ATP content viability assay; settings: gram −, +/− SD, n = 3, >100 = activity detected but <50% inhibition
Bacillus Subtilis (6633) = test: BacTiter-Glo bacterial ATP content viability assay; settings: Bacillus Subtilis (6633), gram +; +/− SD, n = 3; >100 = activity detected but <50% inhibition
Escherichia coli (8739) = test: BacTiter-Glo bacterial ATP content viability assay; settings: gram −, +/− SD, n = 3, >100 = activity detected but <50% inhibition
[7] = test system: Enterococcus faecalis (29212); test: BacTiter-Glo bacterial ATP content viability assay; settings: Enterococcus faecalis (29212), gram +; +/− SD, n = 3; >100 = activity detected but <50% inhibition
Escherichia coli (25922) = test: BacTiter-Glo bacterial ATP content viability assay; settings: gram −, +/− SD, n = 3, >100 = activity detected but <50% inhibition
E. coli = test: Bacterial growth inhibition (FIG. 15); assay type: cell-based, Escherichia coli; settings: FIG. 15 Panel B
[8] = test system: Pseudomonas aeruginosa (27853); test: BacTiter-Glo bacterial ATP content viability assay; settings: gram −, +/− SD, n = 3, >100 = activity detected but <50% inhibition
[9] = test system: Salmonella choleraesuis (13076); test: BacTiter-Glo bacterial ATP content viability assay; settings: gram −, +/− SD, n = 3, >100 = activity detected but <50% inhibition
[10] = test system: lawn of the indicated bacteria; test: Agar diffusion assay; settings: FIG. 11 Panel D; 0.5 mg/ml in sterile PBS per well
[11] = test system: Staphylococcus aureus (29213); test: BacTiter-Glo bacterial ATP content viability assay; settings: Staphylococcus aureus (29213), gram +; +/− SD, n = 3; >100 = activity detected but <50% inhibition
[12] = test system: Streptococcus pneumoniae (49619); test: BacTiter-Glo bacterial ATP content viability assay; settings: gram +, +/− SD, n = 3, >100 = activity detected but <50% inhibition
H. influenzae NB65027 [13] = settings: aerobic gram negative
[14] = test system: Listeria monocytogenes (7644); test: BacTiter-Glo bacterial ATP content viability assay; settings: Listeria monocytogenes (7644), gram +; +/− SD, n = 3; >100 = activity detected but <50% inhibition
[15] = Escherichia coli, read-out: minimal inhibitory concentration (MIC)
[16] = Pseudomonas aeruginosa, read-out: minimal inhibitory concentration (MIC)

## CN(C)[C@@H]1C(O)=C(C(N)=O)C(=O)[C@@]2(O)C(O)=C3C(=O)c4c(O)cccc4[C@@](C)(O)[C@H]3C[C@@H]12 [Tetracycline, reference compound]
H. influenzae NB65027 [1]
  MIC: 0.5 µg/mL (≈ 1.13 µM)
[2]; Haemophilus influenzae, read-out: minimal inhibitory concentration (MIC)
  MIC: 0.5 µg/mL (≈ 1.13 µM)
[3]; [15]
  MIC: 0.5 µg/mL (≈ 1.13 µM)
P. aeruginosa NB52019; [16]
  MIC: 32 µg/mL (≈ 72 µM)
[4]; [16]
  MIC: 1 µg/mL (≈ 2.25 µM)
E. coli NB27004; [15]
  MIC: 4 µg/mL (≈ 9 µM)

B1: Nod1: purified recombinant LRR domain of Nod1; human NOD1-LRR is SEQ ID NO: 4 (protein, listed as Homo sapiens)
chain: NKDHFQFTNLFLCGLLSKAKQKLLRHLVPAAALRRKRKALWAHLFSSLRGYLKSLPRVQVESFNQVQAMPTFIWMLRCIYETQSQKVGQLAARGICANYLKLTYCNACSADCSALSFVLHHFPKRLALDLDNNNLNDYGVRELQPCFSRLTVLRLSVNQITDGGVKVLSEELTKYKIVTYLGLYNNQITDVGARYVTKILDECKGLTHLKLGKNKITSEGGKYLALAVKNSKSISEVGMWGNQVGDEGAKAFAEALRNHPSLTTLSLASNGISTEGGKSLARALQQNTSLEILWLTQNELNDEVAESLAEMLKVNQTLKHLWLIQNQITAKGTAQLADALQSNTGITEICLNGNLIKPEEAKVYEDEKRIICF
L. monocytogenes
  L. monocytogenes growth: inhibited
[5]
  antibacterial activity by bacterial ATP content (IC50), [LRR domain]: >100 microgram/ml
[6]
  antibacterial activity by bacterial ATP content (IC50), [LRR domain]: 30.8 +/− 4.9 microgram/ml
Bacillus Subtilis (6633)
  antibacterial activity by bacterial ATP content (IC50), [LRR domain]: 15.5 +/− 12.0 microgram/ml
Escherichia coli (8739)
  antibacterial activity by bacterial ATP content (IC50), [LRR domain]: 29.0 +/− 2.8 microgram/ml
[7]
  antibacterial activity by bacterial ATP content (IC50), [LRR domain]: >100 microgram/ml
Escherichia coli (25922)
  antibacterial activity by bacterial ATP content (IC50), [LRR domain]: >100 microgram/ml
E. coli
  E. coli growth: inhibited
[8]
  antibacterial activity by bacterial ATP content (IC50), [LRR domain]: >100 microgram/ml
[2]; aerobic gram negative, H. influenzae NB65027-CDS0021*, TolC efflux pump mutant strain
  minimal inhibitory concentration (MIC): 4 microgram/ml
[9]
  antibacterial activity by bacterial ATP content (IC50), [LRR domain]: >100 microgram/ml
[3]; aerobic gram negative, E. coli NB27005*, TolC efflux pump mutant strain
  minimal inhibitory concentration (MIC): 32 microgram/ml
[10]
  anti-bacterial activity by agar diffusion assay: Anti-bacterial activity
[11]
  antibacterial activity by bacterial ATP content (IC50), [LRR domain]: 111.3 +/− 13.0 microgram/ml
[12]
  antibacterial activity by bacterial ATP content (IC50), [LRR domain]: 13.5 +/− 4.9 microgram/ml
H. influenzae NB65027 [13]
  minimal inhibitory concentration (MIC): >128 microgram/ml
P. aeruginosa NB52019
  minimal inhibitory concentration (MIC): >128 microgram/ml
[4]; aerobic gram negative, P. aeruginosa NB52020*, mexAB/oprM efflux pump mutant strain
  minimal inhibitory concentration (MIC): >128 microgram/ml
[14]
  antibacterial activity by bacterial ATP content (IC50), [LRR domain]: 32.0 +/− 2.1 microgram/ml
E. coli NB27004
  minimal inhibitory concentration (MIC): >128 microgram/ml
